The values below come from paper PMC3260422.

Experiment [1] addresses human CSF-1 receptor full-length ectodomain, domains D1-D5 (hCSF-1R_(D1-D5)) (human) (UniProt P07333). Put plainly: SAXS.
Experiment [2] shares this target. Put plainly: field-flow fractionation.
Target sequence in this assay (P07333 20-517): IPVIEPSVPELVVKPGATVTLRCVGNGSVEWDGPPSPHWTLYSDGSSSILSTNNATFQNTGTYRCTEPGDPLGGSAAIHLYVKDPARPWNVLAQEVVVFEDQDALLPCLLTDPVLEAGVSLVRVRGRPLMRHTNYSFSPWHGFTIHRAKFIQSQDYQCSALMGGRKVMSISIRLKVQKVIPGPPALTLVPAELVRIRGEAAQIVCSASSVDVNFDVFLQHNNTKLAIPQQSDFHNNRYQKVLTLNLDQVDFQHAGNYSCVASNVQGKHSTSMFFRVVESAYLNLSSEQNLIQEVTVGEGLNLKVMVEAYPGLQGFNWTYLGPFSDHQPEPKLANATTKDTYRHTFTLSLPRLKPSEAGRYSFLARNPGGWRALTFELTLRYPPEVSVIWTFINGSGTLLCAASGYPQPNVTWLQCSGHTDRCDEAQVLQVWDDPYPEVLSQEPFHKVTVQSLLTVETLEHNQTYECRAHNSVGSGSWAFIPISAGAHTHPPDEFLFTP
For experiment [3], the target named is human Colony Stimulating Factor-1 (hCSF-1), residues 1-149 (human). Put plainly: field-flow fractionation.
Experiment [4] concerns the target human CSF-1 receptor full-length ectodomain, domains D1-D5 (hCSF-1R_(D1-D5)) (human) (UniProt P07333). Description: ITC.
Target sequence in this assay (P07333 20-517): as above
The target in experiment [5] is mouse CSF-1 receptor full-length ectodomain, domains D1-D5 (mCSF-1R_(D1-D5)) (mouse) (UniProt P09581). Put plainly: ITC. (Isothermal titration calorimetry measures the heat released or taken up as one component is titrated into another.)
Sequence of mouse CSF-1 receptor full-length ectodomain, domains D1-D5 (mCSF-1R_(D1-D5)) (mouse) (P09581 20-515): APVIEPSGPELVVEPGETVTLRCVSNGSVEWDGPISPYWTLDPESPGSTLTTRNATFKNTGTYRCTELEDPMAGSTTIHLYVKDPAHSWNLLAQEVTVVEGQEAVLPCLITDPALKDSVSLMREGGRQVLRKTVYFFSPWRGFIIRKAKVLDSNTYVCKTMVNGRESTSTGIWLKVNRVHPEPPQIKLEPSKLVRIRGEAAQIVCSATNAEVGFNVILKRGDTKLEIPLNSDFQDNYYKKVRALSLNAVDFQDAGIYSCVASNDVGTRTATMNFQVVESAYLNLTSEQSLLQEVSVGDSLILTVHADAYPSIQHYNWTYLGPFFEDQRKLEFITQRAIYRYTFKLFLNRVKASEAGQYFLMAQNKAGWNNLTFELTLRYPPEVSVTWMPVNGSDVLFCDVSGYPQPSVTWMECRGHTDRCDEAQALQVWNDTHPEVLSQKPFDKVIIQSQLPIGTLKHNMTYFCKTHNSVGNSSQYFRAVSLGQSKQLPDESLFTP
The target of experiment [6] is mouse CSF-1 receptor, first three extracellular domains (mCSF-1R_(D1-D3)) (mouse) (UniProt P09581). Put plainly: ITC.
Sequence of mouse CSF-1 receptor, first three extracellular domains (mCSF-1R_(D1-D3)) (mouse) (P09581 20-298): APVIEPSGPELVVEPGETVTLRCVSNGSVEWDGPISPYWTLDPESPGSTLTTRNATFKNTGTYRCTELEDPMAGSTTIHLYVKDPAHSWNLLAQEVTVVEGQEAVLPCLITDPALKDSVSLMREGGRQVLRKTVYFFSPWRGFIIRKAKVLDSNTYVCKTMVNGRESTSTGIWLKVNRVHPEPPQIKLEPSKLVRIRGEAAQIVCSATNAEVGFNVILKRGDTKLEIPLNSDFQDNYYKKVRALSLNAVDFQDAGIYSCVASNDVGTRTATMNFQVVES

For “human CSF-1 receptor full-length ectodomain, domains D1-D5 (hCSF-1R_(D1-D5)) (from UniProt P07333 20-517)”, the stoichiometry N (as a rule, the number of molecules, sites or subunits per partner or assembly) in experiment [1] turned out to be 2.
For the substance “human Colony Stimulating Factor-1 (hCSF-1), residues 1-149 (ligand)”, the stoichiometry N (CSF-1 dimer per receptor) in experiment [2], in experiment [4] and in experiment [5] was 0.5 in each case. Moreover, the stoichiometry N in experiment [3] was found to be 2. Also, the values for the Kd in experiment [4] and in experiment [5] were 13.6 nM and 66.2 nM, respectively.
Consider “mouse Colony Stimulating Factor-1 (mCSF-1), residues 1-149 (ligand)”, for which the Kd (commonly a measure of binding affinity in units of concentration) was 2800 nM in experiment [4] and 21.7 nM in experiment [5]. The stoichiometry N (CSF-1 dimer per receptor) in experiment [4], in experiment [5] and in experiment [6] was 0.5 throughout.
